# Test: yeast display, Sf9 membrane polyspecificity reagent, FACS + sequencing; frameworks hold sequencing errors
# How it was run: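 After 36–48 hours of galactose induction, yeast (Saccharomyces cerevisiae BJ5465) displaying a synthetic nanobody library were stained at 4 °C for 1 hour with 10% biotinylated, detergent-solubilized Sf9 membrane reagent. Streptavidin microbeads enriched the stained cells before FACS sorting into low and high (top ~1%) gates on anti-HA and streptavidin fluorescence. Each clone's polyreactivity label reflects its gate of origin.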
row,Sequence,polyreactivity (PSR sort gate)
1,QVQLVESGGVLVQAGGSLRLSCAASGNIFDQNAMGWYRQAPGKERELVAAITRSGSTTYYADSVKGRFTISRDNAKNTVYLQMNSLNPEDTAVYYCAAKVYAYRTYKMYYWGQGTQVTVSS,high polyreactivity
2,QVQLEESGGGLVQAGGSLRLSCAASGFTIGYNAKGWYRQATRKERELVAAIRSTGSTNYADSVKGRFTISRDYAKNTVYLQMNSLKPEDTAVYYGAAGRNAAIVYDYDYWGQGTQVTVSS,low polyreactivity
3,QVQLVESGGGLVQAGGSLRISCAASGNIFSYYAMGWYRQAPGKERELVAAISSGGSTYYADSVKGRFTISRDNGMNTVYLQMNSLKPEDTAVYYCNKLAYVGRYGYWGQGTEVTVSS,high polyreactivity
4,QVQLVESGGGLVQAGGSLRLICAASGRTCRTYTMGLYRQATGKEREFVAAITSSGASTYYADSVKGRFTISRDKAKNTVYLQMNSLKPEDTAVYYCAARPRPRSANGMYYWGQVTQVTVSS,high polyreactivity
5,QVQLVESGGGIVQAGGSLRLSCAASGSTFLTNTMGWYRQAPGTESELVAAITLRGGRTYYADSVKGRFTISRDNAKNTVYLQMNSLKPEDTAVYYCNARNYYYPSDRDYWGQGTQVTGSS,low polyreactivity
6,QVQLVESGGGLVQAGGSLRLSCAACGFIFYINTMGWYRQAPGKERELVAAISQSGVGTSYADSVKGRFTISRDNAKNTVYLQMNSLKPEDTAVYDCATDFARSDVVDRFAYWRQGTQVTVSS,low polyreactivity
7,QVQLVESGGGLVQAGGSLRLSCAASGNIFYRYAMGWYRQAPGKERELVAAISGNSGNTYYADSVKGRFTISRDNAKNTVYLQMNSLKPEDTAVYYCAVRRKSFRQTSYNYWGQGTQVTVSS,high polyreactivity
8,QVQLVESGGGLVQAGGSLRLSCAASGRTFQQNAMGWYRQAPGKERELVAAINSRGGRTYYADSVKGRFTISRDYAKNTVYLQMNSLKPEDTAVYYCAARYYWGQGTQVTVSS,high polyreactivity
9,QVQLVESGGGLVQAGGRLRLSCAASGNTFDYYAMGWYRPAPGKERELVAAITRGGSTNYADSVKGRFTISRDNAKNTVYLQMNSLKPEDTAVYYCAAEQRAPRFADYDYWGQGTQVTVSS,low polyreactivity
10,QVQLVESGGGLVQAGGSLRLSCAASGSTFYRYAMGWYRQAPGKETELVAAITWRGGSTYYADSVKGRFTISRDNAKNTVYLQMNSLKPEDTAVYYCAAAKYRRGTRYYYWGQCTQVTVSS,high polyreactivity
11,QVQLVESGGGLVQAGGSLRLSCAASGFTFGQYAMGWYRQAPGKERELVAAISWSGGSTYYADSVKGRFTISRDNAKNTVYLQMNSLKPEDTAVYYCGEDLGDYWGQGTQVTVSS,high polyreactivity
12,QVQLVESGGGLVQAGGSLRLSCAASGSTLATYTMGWYRQAPGKERELVAAISFGGSTYYADSVKGRFTISRDNAKNTVYLQMNSLKPEDTAVYYCAVYGDSYWGAYYYSDGYWGQGTQVTVSS,low polyreactivity
13,QVQIVESGAGLVHAGGSLRISCAASGRIFWIYAMGWYRQAPGKESELVATITGSGGSTYYADSVKGRFTISRDNAKKTVYLQMNSLKPEVTAVYYCAARYPVSGGYDYWGQGTQVTLSS,low polyreactivity
14,QVQLVESGGGLVQAGGSLRLSCAASGIIFSYYAMGCYRQAPGKERELVAAISWSGGSTYYADSVKGRFTISRDNAKNTVYLQMNSLKPEDTAVYYCAADDYLAYVYWGQGTQVTVSS,high polyreactivity
15,QVQLVESGGGLVQAGGSLRLSCAASGFTFTANGMGWYIQAPGKERELLAAINWSGSRTYYADSVKGRFTISRDNAKNTVYLQMNSLKPEDTAVYYCNTATSKSSYRHYDYWGQGTQVTVSS,high polyreactivity
16,QGQLVESGGGLVQAGGSLRLSCAASGRIFYAYAMGWYRQAPGKERELGAAITSSGGRTYYADSVKGRFTISRDTAKNTVYLQLNSLKPEDTAVYYCAAYDYWGQGTQVTVSS,low polyreactivity
17,QVQLVESGGGLVQAGGSLRLSCAASGRTLSVNAMGWYRQAPGKERELVAAITWGGGSTYYADSVKGRFTISRDNAKNTVYLQMNSLKPEDTAVYYCNADPGWTELEYDYWGQGTQVTVSS,low polyreactivity
18,QVQLVESGGGLVQAGGSLRLSCAASGSTFYRYAMGWYRQAPGKERELVAAISSGGRTYYADSVKGRFTISRDNAKNTVYLQMNSLKPEDTAVYYCATSWTFRQGYNYWGQGTQVTVSS,high polyreactivity
19,QVQVVESGGGLVQAGGSLRLSCAASGRTFDWYLMGWYRQAPGKERELVASIRGTGSTYYADSVKGRFTISRDNAKNTVYLQMNSLKAEDTAVYYCAARPGFLYSKYNYWGQGTQVTVSS,high polyreactivity
20,QVQLVESVGGLVQAGASLRLSCAASGSIFGYNPMGWYRQAPGKERELVAVINASGASTYYADSVKGRFTISRDNAKNTVYLQMNSLKPEDTAVYYCAKDPFPFPGGDYWGQGTQVTVSS,low polyreactivity
21,QVQLVESGGGLVQAGGSLRLSCAASGLIFGYYAMGWYRQAPGKERELVARITRRGGSTYYADSVKGRFTISRDNAKNTVYLQRNSLKPEDTAVYYCAADWYSPRISREYDYWGQGTQVTVSS,high polyreactivity
22,QVQLVESGGGLVHAGGSLRLSCAASGSTFGINAMGWYRQAPGKERELVAAITRGGSTKYADSVKGRFTISRDNAKKTVYLQMNSLKPEDTAVYYCNKRPWHRSSRPFYYWGQGTQVTVSS,high polyreactivity

row,Sequence,polyreactivity (PSR sort gate)
1,QVQLVESGGGLVQAGGSLRLSCAASGFTFVYYAMGWYRQAPGKERELVAAISRGGSTYYADSVKGRFTISRDNAQNPVYLQMNSLKPEDTAVYYCNAKKSGHYVSYPAYDYWGQGTQVTVSS,low polyreactivity
2,QVQLVESGGGLVQAGGSLRLSCAASGSILRRYAMGWYRQAPGKERELVAAINYSGGNTYYADSVKGRFTISRDNAKNTVYLQMNSLKPEDTAVYFCAAYYGPYSARYYGGYEYWGQGTQVTVSS,high polyreactivity
3,QVQLVESGGGLVQAGGSLRLSCPASGRTFKRYAMGWYRQEPGKEMELVASISWRGGSTYYADSVKGRFTISRDNAKNTVYLQMNSLKPEDTAVYYCAAEGPGNVYKLDYWGQGTQVTVSS,low polyreactivity
4,QVHLVESGGGLVQAGGSLRLSCAASGRIFSYYALGWSRQAPGKERELVAAISWSGSRTYYADSVKGRFTFSRDNAKNTVYFQMNSLKPEDTAVYYCDAEVWSTQGSATVQYDYCGQGTQVTVSS,high polyreactivity
5,QVQLVESGGGLVQAGGSLRLSCAASGSTFPYYAMGWYRQAPGKEMELVASIRKRGGGTYYADSVKGRFTISRDNAKNTVYLQMNSLKPEDTAVYYCAVRVYQFRYTGYDYWGQGTQVTVSS,high polyreactivity
6,QVQLVESGGGLVQAGGSLRLSCAASGFTLVKYVMGWYIQAPGKEREFVATIRRRGGNTYYADSVKGRFTISRDNAKNTVYLQMNSLKPEDTAVYYCAAKKRSDLRTGDMEYWGQGTQVTVSS,high polyreactivity
7,QVQHEESGGGLVQAGGSLRLSCAASGIIFYYYALGWYRQAPGKERELVAAITGTGSRTYYADSVKGRFTISRDNAKNTVYLQMNSLKPEDTAVYYCNARSFATGSKVPARGYWGHGTQVTVSS,high polyreactivity
8,QVQLVESGGGLVQAGGSLRLSCGASGNTFYPNAMGWYRQAPGKERELVAAITTSGVTTYYADSVKGSFTISRDNAKNTVYLQINSLKPEDTAVYYCAAYWSRDKYYYWGQGTQVTVSS,low polyreactivity
9,QVQLVESGGGLVQAGGSLRLSFAASGSTFTYNDMGWYRQAPGKERELVARITFSSGRTYYADSVKGRFTISRDNAKNTVYLQMNSLKPEDTAVYYCARQWYWRPGYYIGQGYEYWGQGTQVTVSS,low polyreactivity
10,QVQLVESGGGLVQAGGSLRLSCAASGSTFASYAMGWYRQAPGKERELVAAISSSGARTYYADSVKGRFTISRDNAKNTVYLQMNSLKPEDTAVYYCATDSKITETSLRYDYWGQGTQVTVSS,high polyreactivity
11,QVQLVESGGALVQAGGSLSLSCAASGSIFVGNAMGWYRQAPGKERELVAAINGGGTNYADSVKGRFTFSRDNAKNTVYLQMNSLKPEDTAVYYCAAPVRSNDSAYLHRDNDYWGQGTQVTVSS,low polyreactivity
12,QVQLVESCGGLVQAGGSLRLSCAASGFTFTWNAMGWYRQAPGKERELVAGITRGGSTNYADSVKGRFTISRDNAKNTVYLQMNSLKPEDTAVYYCNVSFYFHHAGYDYWGQGTQVTVSS,low polyreactivity
13,QVQLVESGGGLVQAGGSLRLSCAASGFTLLTYVMGWYRQAPGKERELVAAISKSGSRTYYADSVKWRFTISRDNAKNTVYLQMNRLKPVDTPVYYCAADTSAYRYDYWGQGTQVTVSS,high polyreactivity
14,QVQLVESGGGLVQAGVSLRLSCAASGNTFGLYAMGWYRQAPGKEREFVADITTDGGTTYYADSVKGRFTISRDNAKNTVYLQMNSLKPEDTAVYYCAKLGTFGQHQYDYWGQGTQVTVSS,low polyreactivity
15,QVQLVESGGGLVQAGGSLRLSCAASGLTFIIYAMGWYRQAPGKERELVARISSGGRTNYADSVKGRFTISRDYAKNTVYIQMNSLTPEDTAVYYCAAAFVYPYRHYYRYDYWGQATQVTVSS,high polyreactivity
16,QVQLVESGGGLVLAGGSLRLSCAASGRIYRIYNKGWYRQAPGKERELVAAISKSGGGTYYADSVKGRFTISRDNAKNTVYLQMNSLKPEDTAVYYCTTANWDRKSRVFRQSTVGYGYWGQGTQVTVSS,high polyreactivity
17,QVQLVESGGGLVQAGGSLRLSCAASGRIFSHNAMGWYRQAPGKERELVAAISRSGGRTYYADSVKGRFTISRYNAKNTVYVQMKSLKPEDTAVYYCAADYRLKKSPGYSGEDDYWGQGTQVTVSS,high polyreactivity
18,QVQLVESGGGLVQAGGSLRLSCAASGFIFRWYAMGWYRQAPGKERELVASITRGGSTNYADSVKGRFTISRDNAKNTVYLQMNSLKPEDTAVYYCAAGWRRAAGIQYWYGYWGQGTQVTVSS,high polyreactivity
19,QVQLVESGGGLVQAGGSLRLSCAASGRTIYYYAMGWYRQAPGKEREFVAAISWHGGSTYYADSVKGRFTISRDNAKNTVYLQMNSLKPEDTAVYYCAADIYLRGFHYDYWGQGTQVTVSS,low polyreactivity
20,QVQLVESGGGLVQAGGSLRLSCAASGRILKWNARGWYRHAPGKERELVAAISQSGGSTYYADSVKGRFTISRDNAKNTVYLQMNSLKPEDTAVYYCAARRGSKFWGQGTQVTVSS,low polyreactivity
21,QVQLVESGGGLVQAGGSLRLSCAASGRIFVHNAMGWYRQAPGKERELVAAISSGGSTYYADSVKGRFTISRDNAKNTVYLQMNSLKPEDTAVYYCAKYAYYKKYDYWGQGTQVTVSS,high polyreactivity
